Patent publication US20250092124A1

How the values were obtained:
[1] = biological target: GDF15-mFC protein (human; mouse) (UniProt Q99988); experiment: competitive ELISA, GFRAL-HIS coated (competitor), GDF15-mFc 0.3 µg/ml pre-incubated with antibody
[2] = biological target: GDF15-HIS (ACROBiosystems, CAT #: GD5-H5149) (human) (UniProt Q99988)
[3] = biological target: GDF15-mFC protein (human; mouse) (UniProt Q99988); experiment: blocking ELISA as in Example 4, GFRAL-hIgG1 Fc coated (competitor), GDF15-mFC mixed with antibody
[4] = biological target: GDF15-HIS (ACROBiosystems, CAT #: GD5-H5149) (human) (UniProt Q99988); experiment: ELISA, GDF15-HIS coated
[5] = biological target: GDF15-HIS (ACROBiosystems, CAT #: GD5-H5149) (human) (UniProt Q99988); experiment: BLI (ForteBio Octet), antibody immobilised, GDF15 200-6.25 nM
[6] = biological target: GDF15-HIS (ACROBiosystems, CAT #: GD5-H5149) (human) (UniProt Q99988); experiment: cell-based or functional assay

GDF15-mFC protein (human; mouse), sequence (Q99988 197-308): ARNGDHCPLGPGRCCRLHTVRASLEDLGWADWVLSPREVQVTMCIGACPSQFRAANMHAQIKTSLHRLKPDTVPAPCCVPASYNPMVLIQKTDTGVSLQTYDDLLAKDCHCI
GDF15-HIS (ACROBiosystems, CAT #: GD5-H5149) (human), sequence (Q99988 197-308 limits assumed): as the sequence (Q99988 197-308) above

- IC50 [1]: 0.504 mg/L
- OD450.Max [1]: 1.02 OD450
- EC50 (read off the curve) of GDF15-His for luciferase induction with 0.1 µg/ml antibody present [2]: 0.01 mg/L
- IC50 [3]: 0.504 mg/L
- OD450.Max [3]: 1.02 OD450
- EC50 [4]: 0.096 mg/L
- OD450.Max [4]: 1.1 OD450
- Kd [5]: < 1 pM
- koff [5]: < 1e-07 s⁻¹
- kon [5]: 711000 M⁻¹ s⁻¹
- Bottom (luciferase activity fold, fitted curve), HEK293 SRE-LUC2-cRET-GFRAL reporter cells [6]: 1.07
- IC50, luciferase in HEK293 SRE-LUC2-cRET-GFRAL reporter cells stimulated with GDF15-His 5 ng/ml [6]: 0.0321 mg/L
B1: Ponsegromab (antibody, INN chains, looked up, V domains shown)
VH: QVQLVQSGAEVKKPGSSVKVSCKASGYTFSSYNIDWVRQAPGQGLEWMGGINPIFGTAFYNQKFQGRVTITADESTSTAYMELSSLRSEDTAVYYCAREAITTVGAMDHWGQGTLVTVSS
VL: EIVLTQSPATLSLSPGERATLSCRTSQSVHNYLAWYQQKPGQAPRLLIYDASTRADGIPARFSGSGSGTDFTLTISSLEPEDFAVYYCQQFWSWPWTFGQGTKVEIK
